Article PMC3478282, “Probing the Putative Active Site of YjdL: An Unusual Proton-Coupled Oligopeptide Transporter from E. coli” (PLoS ONE, 2012)

Legend:
YjdL-Asp392Ser (E. coli) = YjdL-Asp392Ser (E. coli) (UniProt P39276)
[1] = target: YjdL from E. coli, wild type (E. coli) (UniProt P39276)
YjdL Tyr25Phe (E. coli) = YjdL Tyr25Phe (E. coli) (UniProt P39276)
YjdL-Ala281Phe (E. coli) = YjdL-Ala281Phe (E. coli) (UniProt P39276)
YjdL Tyr113Phe (E. coli) = YjdL Tyr113Phe (E. coli) (UniProt P39276)
YjdL-Trp278Phe (E. coli) = YjdL-Trp278Phe (E. coli) (UniProt P39276)
YjdL Tyr58Phe (E. coli) = YjdL Tyr58Phe (E. coli) (UniProt P39276)
YjdL Tyr21Phe (E. coli) = YjdL Tyr21Phe (E. coli) (UniProt P39276)
[2] = target: YjdL from E. coli, wild type (E. coli) (UniProt P39276); remark: listed apart in the source

Substance	β-Ala-Lys(AMCA) uptake (0.5 mM) left with 50 mM competitor, E. coli cells, pH 6.5 (YjdL-Asp392Ser (E. coli)) [%]	β-Ala-Lys(AMCA) uptake (0.5 mM) left with 50 mM competitor, E. coli cells, pH 6.5 [1] [%]	IC50 of inhibition of β-Ala-Lys(AMCA) uptake into E. coli cells (0.2 mM substrate, 5 min, pH 6.5) (YjdL Tyr25Phe (E. coli)) [mM]	IC50 of inhibition of β-Ala-Lys(AMCA) uptake into E. coli cells (0.2 mM substrate, 5 min, pH 6.5) (YjdL-Ala281Phe (E. coli)) [mM]	IC50 of inhibition of β-Ala-Lys(AMCA) uptake into E. coli cells (0.2 mM substrate, 5 min, pH 6.5) (YjdL Tyr113Phe (E. coli)) [mM]	IC50 of inhibition of β-Ala-Lys(AMCA) uptake into E. coli cells (0.2 mM substrate, 5 min, pH 6.5) (YjdL-Trp278Phe (E. coli)) [mM]	IC50 of inhibition of β-Ala-Lys(AMCA) uptake into E. coli cells (0.5 mM substrate, 15 min, pH 6.5) (YjdL Tyr58Phe (E. coli)) [mM]	IC50 of inhibition of β-Ala-Lys(AMCA) uptake into E. coli cells (0.2 mM substrate, 5 min, pH 6.5) (YjdL Tyr21Phe (E. coli)) [mM]	IC50 of inhibition of β-Ala-Lys(AMCA) uptake into E. coli cells (0.2 mM substrate, 5 min, pH 6.5) [2] [mM]	IC50 of inhibition of β-Ala-Lys(AMCA) uptake into E. coli cells (0.5 mM substrate, 15 min, pH 6.5) [2] [mM]
Ala-Ala-Ala (peptide)	34	55	–	–	–	–	–	–	–	–
Ala-Lys (peptide)	–	< 10	0.4	0.26	0.34	0.38	> 50	0.45	0.28	0.89
